Assay results: paper PMC4046112, “eIF2B is a decameric guanine nucleotide exchange factor with a γ2ε2 tetrameric core” (Nature Communications, 2014)

B1: eIF2Bα (α-subunit of yeast eIF2B) (natural protein, S. cerevisiae, UniProt P14741 1-305, looked up)
chain: MSEFNITETYLRFLEEDTEMTMPIAAIEALVTLLRIKTPETAAEMINTIKSSTEELIKSIPNSVSLRAGCDIFMRFVLRNLHLYGDWENCKQHLIENGQLFVSRAKKSRNKIAEIGVDFIADDDIILVHGYSRAVFSLLNHAANKFIRFRCVVTESRPSKQGNQLYTLLEQKGIPVTLIVDSAVGAVIDKVDKVFVGAEGVAESGGIINLVGTYSVGVLAHNARKPFYVVTESHKFVRMFPLSSDDLPMAGPPLDFTRRTDDLEDALRGPTIDYTAQEYITALITDLGVLTPSAVSEELIKMWYD
notes: eIF2B alpha subunit (GCN3), S. cerevisiae; Subunit of the purified eIF2B complex, written alone for the subunit pairs; also called eIF2B α-subunit; GCN3
B2: eIF2Bβ (β-subunit of yeast eIF2B) (natural protein, S. cerevisiae, UniProt P32502 1-381, looked up)
chain: MSSQAFTSVHPNAATSDVNVTIDTFVAKLKRRQVQGSYAIALETLQLLMRFISAARWNHVNDLIEQIRDLGNSLEKAHPTAFSCGNVIRRILAVLRDEVEEDTMSTTVTSTSVAEPLISSMFNLLQKPEQPHQNRKNSSGSSSMKTKTDYRQVAIQGIKDLIDEIKNIDEGIQQIAIDLIHDHEILLTPTPDSKTVLKFLITARERSNRTFTVLVTEGFPNNTKNAHEFAKKLAQHNIETLVVPDSAVFALMSRVGKVIIGTKAVFVNGGTISSNSGVSSVCECAREFRTPVFAVAGLYKLSPLYPFDVEKFVEFGGSQRILPRMDPRKRLDTVNQITDYVPPENIDIYITNVGGFNPSFIYRIAWDNYKQIDVHLDKNKA
notes: eIF2B beta subunit (GCD7), S. cerevisiae; Subunit of the purified eIF2B complexes, written alone for the subunit pairs; also called eIF2B β-subunit; β/Gcd7
B3: eIF2Bε (ε-subunit of yeast eIF2B, untagged) (natural protein, S. cerevisiae, UniProt P32501 1-712, looked up)
chain: MAGKKGQKKSGLGNHGKNSDMDVEDRLQAVVLTDSYETRFMPLTAVKPRCLLPLANVPLIEYTLEFLAKAGVHEVFLICSSHANQINDYIENSKWNLPWSPFKITTIMSPEARCTGDVMRDLDNRGIITGDFILVSGDVLTNIDFSKMLEFHKKMHLQDKDHISTMCLSKASTYPKTRTIEPAAFVLDKSTSRCIYYQDLPLPSSREKTSIQIDPELLDNVDEFVIRNDLIDCRIDICTSHVPLIFQENFDYQSLRTDFVKGVISSDILGKHIYAYLTDEYAVRVESWQTYDTISQDFLGRWCYPLVLDSNIQDDQTYSYESRHIYKEKDVVLAQSCKIGKCTAIGSGTKIGEGTKIENSVIGRNCQIGENIRIKNSFIWDDCIIGNNSIIDHSLIASNATLGSNVRLNDGCIIGFNVKIDDNMDLDRNTKISASPLKNAGSRMYDNESNEQFDQDLDDQTLAVSIVGDKGVGYIYESEVSDDEDSSTEACKEINTLSNQLDELYLSDDSISSATKKTKKRRTMSVNSIYTDREEIDSEFEDEDFEKEGIATVERAMENNHDLDTALLELNTLRMSMNVTYHEVRIATITALLRRVYHFIATQTLGPKDAVVKVFNQWGLLFKRQAFDEEEYIDLMNIIMEKIVEQSFDKPDLILFSALVSLYDNDIIEEDVIYKWWDNVSTDPRYDEVKKLTVKWVEWLQNADEESSSEEE
notes: eIF2B epsilon subunit (GCD6), S. cerevisiae; Subunit of the purified eIF2B complexes, written alone for the subunit pairs; also called eIF2B ε-subunit; ε/GCD6
B4: eIF2γ, His-tagged (γ-subunit of yeast eIF2) (natural protein, S. cerevisiae, UniProt P32481 1-527, looked up)
chain: MSDLQDQEPSIIINGNLEPVGEPDIVEETEVVAQETQETQDADKPKKKVAFTGLEEDGETEEEKRKREFEEGGGLPEQPLNPDFSKLNPLSAEIINRQATINIGTIGHVAHGKSTVVRAISGVQTVRFKDELERNITIKLGYANAKIYKCQEPTCPEPDCYRSFKSDKEISPKCQRPGCPGRYKLVRHVSFVDCPGHDILMSTMLSGAAVMDAALLLIAGNESCPQPQTSEHLAAIEIMKLKHVIILQNKVDLMREESALEHQKSILKFIRGTIADGAPIVPISAQLKYNIDAVNEFIVKTIPVPPRDFMISPRLIVIRSFDVNKPGAEIEDLKGGVAGGSILNGVFKLGDEIEIRPGIVTKDDKGKIQCKPIFSNIVSLFAEQNDLKFAVPGGLIGVGTKVDPTLCRADRLVGQVVGAKGHLPNIYTDIEINYFLLRRLLGVKTDGQKQAKVRKLEPNEVLMVNIGSTATGARVVAVKADMARLQLTSPACTEINEKIALSRRIEKHWRLIGWATIKKGTTLEPIA
notes: eIF2 gamma subunit (GCD11), S. cerevisiae; also called GCD11-His6; source: S. cerevisiae strain GP3511 co-overexpressing all three eIF2 subunits, purified (Ni-chelate, heparin-Sepharose); not shown: His6, C-terminal, kept
B5: eIF2Bδ (δ-subunit of yeast eIF2B) (natural protein, S. cerevisiae, UniProt P12754 1-651, looked up)
chain: MSESEAKSRSATPPSKAKQATPTTTAAANGEKKLTNKELKELKKQEKAAKRAAMKQANGISIEQQQQQAQMKKEKKQLQREQQQKREQKQKNANKKKQNERNVKKSTLFGHLETTEERRATILALTSAVSSPKTSRITAAGLMVPVVASALSGSNVLTASSLMPVGPNASSTVSASAPASTTTTLPASSAALSAGTSSASTNTPTAIQQEIASSNASDVAKTLASISLEAGEFNVIPGISSVIPTVLEQSFDNSSLISSVKELLLNKDLIHPSILLLTSHLAHYKIVGSIPRCIAMLEVFQIVIKDYQTPKGTTLSRNLTSYLSHQIDLLKKARPLSVTMGNAIRWLKQEISLIDPSTPDKAAKKDLCEKIGQFAKEKIELADQLIIDNASTQIEESTTIVTYGSSKVLTELLLHNAISLKKNIKVIVVDSRPLFEGRKMAETLRNAGVNVMYALITSLDTIFNMDVDYVFLGAHSILSNGFLYSRAGTAMLAMSAKRRNIPVLVCCESLKFSQRVQLDSVTFNELADPNDLVNIDYENPVERRGNKGALLNQFIKERKFEKKKLAMENKPKGNKIGGKKGSEGESKDASNEEDSNSKNILDGWQELPSLNIVNILYDLTPPEYIKKVITEFGALPPSSVPVILREYKGSA
notes: eIF2B delta subunit (GCD2), S. cerevisiae; Subunit of the purified eIF2B complexes, written alone for the subunit pairs; also called eIF2B δ-subunit; δ/Gcd2

Experiments:
[1] = molecular target: yeast FLAG-tagged eIF2B complex (five subunits α–ε; decamer) (S. cerevisiae) (UniProt P14741); assay: native MS; FLAG-purified five-subunit eIF2B in 500 mM ammonium acetate; high collision energy for dissociation; decamer = two copies of each of five subunits
[2] = molecular target: yeast FLAG-tagged eIF2B complex (five subunits α–ε; decamer) (S. cerevisiae) (UniProt P14741); assay: native MS; eIF2-eIF2B preparations (purified at low ionic strength, or formed with phosphorylated eIF2 on anti-FLAG resin) exchanged into 500 mM ammonium acetate
[3] = molecular target: T1, eIF2Bγ, FLAG-tagged (γ-subunit of yeast eIF2B) (S. cerevisiae, UniProt P09032 1-578); assay: label-free quantitative proteomics (iBAQ) of the purified complex; eIF2-eIF2B complex purified after phosphorylation of eIF2, trypsin digest, nanoLC-MS/MS, iBAQ intensities compared; eIF2B subunits relative to FLAG-tagged γ (set to 1), eIF2 subunits relative to α; settings: both partners purified
T1 construct: eIF2B gamma subunit (GCD1), S. cerevisiae; Bait of all eIF2B complex purifications; also called GCD1-FLAG2-His6; source: S. cerevisiae strains overexpressing eIF2B subunits, purified (anti-FLAG resin, FLAG peptide elution); not shown: FLAG2, C-terminal, kept
T1 sequence (looked up): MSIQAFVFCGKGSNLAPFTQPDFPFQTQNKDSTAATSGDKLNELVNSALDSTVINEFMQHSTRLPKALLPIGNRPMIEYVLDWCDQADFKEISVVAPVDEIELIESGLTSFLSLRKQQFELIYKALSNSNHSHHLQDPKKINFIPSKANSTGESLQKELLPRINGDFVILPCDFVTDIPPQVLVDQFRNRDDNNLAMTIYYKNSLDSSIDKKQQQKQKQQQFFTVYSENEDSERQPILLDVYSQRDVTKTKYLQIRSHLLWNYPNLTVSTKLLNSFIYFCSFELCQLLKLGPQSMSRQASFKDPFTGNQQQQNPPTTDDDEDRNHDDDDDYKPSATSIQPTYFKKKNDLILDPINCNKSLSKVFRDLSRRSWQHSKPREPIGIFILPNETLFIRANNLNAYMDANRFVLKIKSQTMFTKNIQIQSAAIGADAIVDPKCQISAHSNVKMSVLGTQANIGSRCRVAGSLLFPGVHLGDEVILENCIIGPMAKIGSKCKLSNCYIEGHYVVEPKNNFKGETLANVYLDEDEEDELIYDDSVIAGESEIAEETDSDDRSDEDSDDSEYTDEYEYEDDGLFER

[4] = molecular target: B5; assay: cross-linking; BS3-d0/d4 (1:1) added to purified complexes (eIF2:eIF2B, four-subunit eIF2B, eIF2Bγε core), 30 min at 26 °C, trypsin digest, nanoLC-MS/MS, MassMatrix search; the text does not tell which cross-link came from which complex; settings: both partners purified
[5] = molecular target: B3; assay: as above; settings: both partners purified
[6] = molecular target: eIF2α phosphorylated at Ser51 (subunit of phosphorylated eIF2) (S. cerevisiae) (UniProt P20459); assay: label-free quantitative proteomics (iBAQ) of the purified complex; eIF2-eIF2B complex purified after phosphorylation of eIF2, trypsin digest, nanoLC-MS/MS, iBAQ intensities compared; eIF2B subunits relative to FLAG-tagged γ (set to 1), eIF2 subunits relative to α
[7] = molecular target: T1, eIF2Bγ, FLAG-tagged (γ-subunit of yeast …); assay: cross-linking; BS3-d0/d4 (1:1) added to purified complexes (eIF2:eIF2B, four-subunit eIF2B, eIF2Bγε core), 30 min at 26 °C, trypsin digest, nanoLC-MS/MS, MassMatrix search; the text does not tell which cross-link came from which complex; settings: both partners purified

Molecule | stoichiometry N [3] | binding result [4] | binding result [5] | also measured
yeast FLAG-tagged eIF2B complex (five subunits α–ε; decamer), P14741 1-305; P32502 1-381; P09032 1-578; P12754 1-651; P32501 1-712 | – | – | – | stoichiometry N [1]: 10; stoichiometry N [2]: 10
B1 | 1.12 | – | – | –
B2 | 1.4 | binds | binds | –
B3 | 0.76 | – | – | –
B4 | – | binds | – | stoichiometry N [6]: 1.67; binding result [7]: binds
B5 | 0.95 | – | binds | –
